B1: JGI15: HACS variant; GenBank HAK63664.1 (protein)
chain: MAKSEGKVNGATLMARALQQQGVQYMFGIVGFPVIPIAIAAQREGITYIGMRNEQSASYAAQAASYLTGRPQACLVVSGPGVVHALAGLANAQVNCWPMLLIGGASAIEQNGMGAFQEERQVLLASPLCKYAHQVERPERIPYYVEQAVRSALFGRPGAAYLDMPDDVILGEVEEAAVRPAATVGEPPRSLAPQENIEAALDALQSAKRPLVIVGKGMAWSRAENEVRQFIERTRLPFLATPMGKGVMPDDHPLSVGGARSHALQEADLVFLLGARFNWILHFGLPPRYSKDVRVIQLDLSAEEIGNNRQAEVALVGDGKAIVGQLNQALSSRQWFYPAETPWREAIAAKIAGNQAAVAPMIADNTSPMNYYRVYRDIAARLPRNAIIVGEGANTMDIGRTQMPNFEPRSRLDAGSYGTMGIGLGFAVAAAAVHPGRPVIAVQGDSAFGFSGMEFETAARYGMPIKVIILNNGGIGMGSPAPRDGQPGMPHALSHDARYERIAEAFGGAGFYVTDSAELGPALDAAMAFKGPAIVNIKIAATADRKPQQFNWHG
B2: JGI20: HACS variant; GenBank PWB41796.1 (protein)
chain: MGQITGAQIVARALKQQGVEYMFGIVGIPVIPIAMFAQREGIKFYGFRNEQSASYAAAAVGYLTGRPGVCLGVSGPGMIHGVAGMANAWSNCWPMILIGGANDSYQNGQGAFQEAPQIEAARPFAKYCARPDSLARLPFYVEQAVRTSIYGRPGAVYLDLPGDIITGAMEEEDVHFPPRCPDAPRMMAPQESIDAAMAALKSAERPLVIVGKGAAYSRAENEVREFLETTQLPYLASPMGKGVMPDDHPLSIAPARSAALLGADVILLMGARLNWMMHFGHPPRFDPKVRVIQMDISAEEIGTNVPTEVALVGDAKAITTQLNASLKQQPWQYPSETTWWTGLRKKIDENGATVAEMMADESVPMSYYRVYREIRDLIPNDAIIQNEGASTMDIGRTLMPNFLPRHRLDAGSFGTMGVGLGQAIAAAAVHPDKHVFCIEGDSAFGFSGMEVETAARYGMKNITFIIINNNGIGGGPDTLDPTRVPPSAYTPNAHYEKMAEIYGGKGYFVTEPSQLRPALEEAIKADKPAIVNIMISATSQRKPQQFAWLTR

Tested on: glycolate production from formaldehyde
Test: Resting-cell bioconversion pathway 1 (HACS with LmACR-EcAldA), formaldehyde as sole carbon source
Type: cell-based, E. coli
Conditions: for glycolate productivity (glycolyl-CoA synthase activity) compared with RuHACL: 5 mM formaldehyde as sole carbon source
Description: We used glycolic acid (glycolate) productivity per cell density (uM glycolate/OD600) as indicator of HACS activity. Two different enzymatic routes for glycolate synthesis are explored. The first pathway (pathway 1) is similar to the pathway used for initial screening in Example 2 with addition of an extra gene, aldehyde dehydrogenase aldA from Escherichia coli (EcAldA) overexpressed to drive flux from glycolaldehyde to glycolate (FIG. 21A). In addition, HACS and LmACR-AldA are controlled under independent inducible promoters to investigate the impact of varying relative gene expressions (FIG. 21B). The second pathway (pathway 2) involves independent fluxes of formaldehyde and formyl-CoA allowing assessment of the enzyme activity with response to changing formaldehyde concentration only, while maintaining constant formyl-CoA flux. Formyl-CoA is generated by formic acid (formate) catalyzed by the acyl-CoA transferase from Clostridium aminobutyricum (CaAbfT) (FIG. 22A).
For the in vivo prototyping, we engineered vectors to independently control expression of HACS variants and the LmACR-EcAldA (pathway 1, FIG. 21A) or CaAbfT (pathway 2, FIG. 22A), with HACS under control of the IPTG-inducible T7 promoter in pCDFDuet-1 and LmACR-EcAldA or CaAbfT under control of a cumate-inducible T5 promoter in pETDuet-1 (FIG. 21B). As a host for these vectors, we used an engineered strain of E. coli based on MG1655(DE3) with knockouts for formaldehyde (ΔfrmA) and formate (ΔfdhF ΔfdnG ΔfdoG) oxidation as well as for glycolate utilization (ΔglcD)), which we expected could compete or interfere with the analysis of our pathway. […]
Cells from the above pre-cultures were then centrifuged (4000 rpm, 22° C.), washed with the above minimal media without any carbon source, and resuspended with 1 mL of above minimal media containing indicated amounts of carbon source. […] The cells were harvested after 3 hours for LmACR-EcAldA co-expression and 1 hour for CaAbfT co-expression by centrifugation and the supernatant analyzed by HPLC or GC-MS as described in EXAMPLE 2. […]

Molecule	glycolate productivity (glycolyl-CoA synthase activity) compared with RuHACL	glycolate productivity relative to RuHACL (5 mM formaldehyde sole carbon source, optimal inducer concentrations, 3 hours)
B1	exceeding the starting reference enzyme, RuHACL	2.5 fold
B2	exceeding the starting reference enzyme, RuHACL	

Reference: patent US20260078416A1, “ORTHOGONAL METABOLIC FRAMEWORK FOR ONE-CARBON UTILIZATION” (Mojia Biotech Pte. Ltd., priority 2021, published 2026)
